Assay results taken from the MegaScale stability set (Tsuboyama et al. 2023).

B1: HEEH_KT_rd6_0790 (parent)
chain: SEEEEEEWRRAKERGEEIIILGILWKPNDEEAERRIKEALRRV
B2: EEHEE_rd4_0647 (parent)
chain: MQVTWGNVTVTFSNPEEAKKYAEKVARKLGGQVELHNGQFRIK

Variants of: B1
Experiment: folding stability dG (cDNA display proteolysis); higher = more stable
Conditions: PBS, room temperature

Variant | folding stability dG
K12Q | 1.9 kcal/mol
K12W | 2.43 kcal/mol
K12F | 2.13 kcal/mol
K12T | 1.59 kcal/mol
K12N | 1.3 kcal/mol
K12R | 2.07 kcal/mol
K12A | 1.59 kcal/mol
K12P | 1.02 kcal/mol
K12V | 1.89 kcal/mol
K12L | 1.86 kcal/mol
K12I | 1.97 kcal/mol
K12C | 2.01 kcal/mol
K12G | 1.07 kcal/mol
K12E | 0.988 kcal/mol
K12S | 1.44 kcal/mol
K12H | 1.96 kcal/mol
K12M | 2.37 kcal/mol
K12D | 1.06 kcal/mol
K12Y | 2.2 kcal/mol
E4S | 2.21 kcal/mol
E4D | 2.17 kcal/mol
E4K | 1.92 kcal/mol
E4P | 2.5 kcal/mol
E4H | 2.41 kcal/mol
E4R | 2.03 kcal/mol

Variant | folding stability dG
E4Q | 2.2 kcal/mol
E4A | 2.68 kcal/mol
E4Y | 2.93 kcal/mol
E4M | 2.82 kcal/mol
E4L | 3.4 kcal/mol
E4F | 2.78 kcal/mol
E4V | 2.71 kcal/mol
E4W | 3.35 kcal/mol
E4G | 2.04 kcal/mol
E4T | 2.29 kcal/mol
E4I | 3.14 kcal/mol
E4N | 1.94 kcal/mol
A11F | 1.89 kcal/mol
A11T | 1.26 kcal/mol
A11Q | 1.2 kcal/mol
A11P | 1.03 kcal/mol
A11K | 1.37 kcal/mol
A11R | 1.62 kcal/mol
A11Y | 1.95 kcal/mol
A11V | 1.75 kcal/mol
A11G | 1.22 kcal/mol
A11D | 0.949 kcal/mol
A11E | 1.05 kcal/mol
A11W | 2.05 kcal/mol
A11L | 2.14 kcal/mol

Variant | folding stability dG
A11H | 1.6 kcal/mol
A11N | 1.28 kcal/mol
A11S | 1.65 kcal/mol
A11M | 1.94 kcal/mol
A11I | 2.52 kcal/mol
R10S | 1.5 kcal/mol
R10V | 1.72 kcal/mol
R10N | 1.69 kcal/mol
R10F | 1.56 kcal/mol
R10Q | 1.81 kcal/mol
R10D | 1.2 kcal/mol
R10M | 1.86 kcal/mol
R10G | 1.56 kcal/mol
R10Y | 1.69 kcal/mol
R10H | 1.76 kcal/mol
R10L | 1.82 kcal/mol
R10I | 1.8 kcal/mol
R10A | 1.82 kcal/mol
R10C | 2.25 kcal/mol
R10W | 1.77 kcal/mol
R10E | 1.33 kcal/mol
R10T | 1.55 kcal/mol
R10K | 2.04 kcal/mol
R10P | 0.8 kcal/mol
I18G | 0.605 kcal/mol

Variant | folding stability dG
I18D | 0.812 kcal/mol
I18H | 1.29 kcal/mol
I18C | 2.38 kcal/mol
I18A | 1.59 kcal/mol
I18F | 2.1 kcal/mol
I18E | 0.975 kcal/mol
E3Q | 2.33 kcal/mol
E3H | 2.33 kcal/mol
E3R | 2.4 kcal/mol
E3W | 2.5 kcal/mol
E3K | 2.46 kcal/mol
E3F | 2.37 kcal/mol
E3M | 2.24 kcal/mol
E3A | 2.33 kcal/mol
E3G | 2.33 kcal/mol
E3P | 2.29 kcal/mol
E3I | 2.32 kcal/mol
E3T | 2.36 kcal/mol
E3Y | 2.44 kcal/mol
E3V | 2.33 kcal/mol
E3N | 2.36 kcal/mol
E3S | 2.49 kcal/mol
E3L | 2.28 kcal/mol
E3D | 2.35 kcal/mol
W8H | 0.824 kcal/mol

Variant | folding stability dG
W8R | 0.881 kcal/mol
W8V | 1.12 kcal/mol
W8Q | 0.919 kcal/mol
W8I | 1.48 kcal/mol
W8P | 1 kcal/mol
W8K | 0.821 kcal/mol
W8C | 1.67 kcal/mol
W8M | 1.34 kcal/mol
W8N | 0.676 kcal/mol
W8A | 0.975 kcal/mol
W8S | 0.793 kcal/mol
W8F | 2.31 kcal/mol
W8T | 0.835 kcal/mol
W8E | 0.744 kcal/mol
W8Y | 1.72 kcal/mol
W8G | 0.818 kcal/mol
W8L | 1.95 kcal/mol
W8D | 0.922 kcal/mol
G15P | 1.03 kcal/mol
G15K | 1.6 kcal/mol
G15E | 1.5 kcal/mol
G15N | 1.9 kcal/mol
G15Y | 1.44 kcal/mol
G15H | 1.53 kcal/mol
G15M | 1.66 kcal/mol

Variant | folding stability dG
G15D | 1.25 kcal/mol
G15T | 1.18 kcal/mol
G15C | 2.43 kcal/mol
G15I | 1.34 kcal/mol
G15R | 1.66 kcal/mol
G15Q | 1.81 kcal/mol
G15S | 1.61 kcal/mol
G15V | 1.32 kcal/mol
G15W | 1.68 kcal/mol
G15L | 1.6 kcal/mol
G15F | 1.57 kcal/mol
G15A | 1.39 kcal/mol
S1W | 2.77 kcal/mol
S1R | 2.18 kcal/mol
S1L | 2.55 kcal/mol
S1Y | 2.74 kcal/mol
S1M | 2.5 kcal/mol
S1C | 2.82 kcal/mol
S1F | 2.71 kcal/mol
S1Q | 2.15 kcal/mol
S1V | 2.55 kcal/mol
S1I | 2.61 kcal/mol
S1T | 2.36 kcal/mol
S1D | 2.12 kcal/mol
S1K | 2.1 kcal/mol

Variant | folding stability dG
S1N | 2.18 kcal/mol
S1H | 2.67 kcal/mol
S1E | 2.23 kcal/mol
S1G | 2.63 kcal/mol
S1A | 2.38 kcal/mol
S1P | 2.23 kcal/mol
E13D | 1.93 kcal/mol
E13I | 2.04 kcal/mol
E13H | 1.68 kcal/mol
E13T | 1.77 kcal/mol
E13Q | 2.15 kcal/mol
E13P | 0.785 kcal/mol
E13G | 1.49 kcal/mol
E13L | 2.4 kcal/mol
E13K | 1.86 kcal/mol
E13S | 2.1 kcal/mol
E13W | 1.78 kcal/mol
E13N | 1.69 kcal/mol
E13F | 1.77 kcal/mol
E13Y | 1.78 kcal/mol
E13R | 1.77 kcal/mol
E13V | 1.94 kcal/mol
E13A | 2.22 kcal/mol
E13M | 2.23 kcal/mol
R14M | 1.88 kcal/mol

Variant | folding stability dG
R14W | 1.58 kcal/mol
R14S | 1.92 kcal/mol
R14E | 1.68 kcal/mol
R14Y | 1.68 kcal/mol
R14L | 2.05 kcal/mol
R14D | 1.49 kcal/mol
R14A | 2.04 kcal/mol
R14K | 2.12 kcal/mol
R14T | 1.79 kcal/mol
R14F | 1.67 kcal/mol
R14G | 1.42 kcal/mol
R14Q | 1.83 kcal/mol
R14P | 1.09 kcal/mol
R14I | 1.92 kcal/mol
R14V | 1.76 kcal/mol
R14H | 1.67 kcal/mol
R14N | 1.97 kcal/mol
E16A | 1.7 kcal/mol
E16S | 1.94 kcal/mol
E16Q | 2.05 kcal/mol
E16P | 1.15 kcal/mol
E16D | 1.95 kcal/mol
E16G | 1.61 kcal/mol
E16M | 1.93 kcal/mol
E16W | 2.03 kcal/mol

Variant | folding stability dG
E16R | 1.66 kcal/mol
E16L | 2.28 kcal/mol
E16F | 2.04 kcal/mol
E16K | 1.96 kcal/mol
E16H | 1.93 kcal/mol
E16N | 1.71 kcal/mol
E16T | 1.94 kcal/mol
E16Y | 1.9 kcal/mol
E16I | 2.21 kcal/mol
E16V | 2.15 kcal/mol
E7H | 2.14 kcal/mol
E7N | 2.54 kcal/mol
E7K | 2.9 kcal/mol
E7S | 2.31 kcal/mol
E7W | 2.86 kcal/mol
E7F | 2.91 kcal/mol
E7P | 1.32 kcal/mol
E7M | 2.62 kcal/mol
E7V | 2.09 kcal/mol
E7L | 2.65 kcal/mol
E7D | 1.99 kcal/mol
E7I | 2.36 kcal/mol
E7Q | 2.44 kcal/mol
E7R | 2.97 kcal/mol
E7C | 2.59 kcal/mol

Variant | folding stability dG
E7G | 1.81 kcal/mol
E7A | 2.78 kcal/mol
E7Y | 2.19 kcal/mol
E7T | 2 kcal/mol
E6S | 1.63 kcal/mol
E6G | 1.46 kcal/mol
E6K | 1.72 kcal/mol
E6D | 2.09 kcal/mol
E6W | 2.09 kcal/mol
E6F | 1.93 kcal/mol
E6I | 1.77 kcal/mol
E6V | 1.64 kcal/mol
E6N | 1.85 kcal/mol
E6A | 1.99 kcal/mol
E6R | 1.65 kcal/mol
E6Q | 1.72 kcal/mol
E6M | 1.87 kcal/mol
E6Y | 2.08 kcal/mol
E6C | 2.44 kcal/mol
E6H | 1.61 kcal/mol
E6P | 1.35 kcal/mol
E6L | 1.93 kcal/mol
E6T | 1.58 kcal/mol
E2D | 2.16 kcal/mol
E2A | 2.2 kcal/mol

Variant | folding stability dG
E2T | 2.49 kcal/mol
E2Q | 2.29 kcal/mol
E2I | 2.44 kcal/mol
E2Y | 2.58 kcal/mol
E2S | 2.61 kcal/mol
E2F | 2.7 kcal/mol
E2V | 2.33 kcal/mol
E2H | 2.52 kcal/mol
E2R | 2.39 kcal/mol
E2L | 2.5 kcal/mol
E2N | 2.27 kcal/mol
E2P | 2.21 kcal/mol
E2M | 2.45 kcal/mol
E2G | 2.34 kcal/mol
E2C | 2.63 kcal/mol
E2W | 2.54 kcal/mol
E2K | 2.19 kcal/mol
R9W | 1.92 kcal/mol
R9H | 1.83 kcal/mol
R9F | 1.85 kcal/mol
R9I | 1.94 kcal/mol
R9V | 1.75 kcal/mol
R9K | 1.96 kcal/mol
R9D | 1.36 kcal/mol
R9G | 1.31 kcal/mol

Variant | folding stability dG
R9E | 1.94 kcal/mol
R9P | 0.985 kcal/mol
R9N | 1.85 kcal/mol
R9L | 2.11 kcal/mol
R9T | 1.74 kcal/mol
R9S | 1.62 kcal/mol
R9C | 1.75 kcal/mol
R9Q | 1.96 kcal/mol
R9A | 1.91 kcal/mol
R9M | 1.9 kcal/mol
R9Y | 1.95 kcal/mol
E17W | 2.29 kcal/mol
E17I | 1.94 kcal/mol
E17S | 2.18 kcal/mol
E17N | 1.95 kcal/mol
E17C | 2.35 kcal/mol
E17G | 1.53 kcal/mol
E17F | 1.92 kcal/mol
E17Y | 1.91 kcal/mol
E17A | 2.12 kcal/mol
E17L | 1.89 kcal/mol
E17V | 2.08 kcal/mol
E17Q | 2.02 kcal/mol
E17K | 1.74 kcal/mol
E17P | 2.5 kcal/mol

Variant | folding stability dG
E17M | 2.02 kcal/mol
E17H | 1.89 kcal/mol
E17T | 2.16 kcal/mol
E17R | 1.7 kcal/mol
E17D | 1.81 kcal/mol
E5T | 1.79 kcal/mol
E5W | 2.42 kcal/mol
E5M | 2.1 kcal/mol
E5K | 1.36 kcal/mol
E5Q | 1.6 kcal/mol
E5F | 2.13 kcal/mol
E5I | 1.95 kcal/mol
E5N | 1.83 kcal/mol
E5R | 1.47 kcal/mol
E5A | 1.74 kcal/mol
E5H | 1.8 kcal/mol
E5P | 1.91 kcal/mol
E5S | 1.73 kcal/mol
E5V | 1.73 kcal/mol
E5G | 1.41 kcal/mol
E5Y | 2.2 kcal/mol
E5L | 2.17 kcal/mol
E5D | 1.93 kcal/mol

Variants of: B2
Experiment: as above
Conditions: PBS, room temperature

Variant | folding stability dG
K43L | 3.2 kcal/mol
R41Y | 3.35 kcal/mol
L29A | 1.76 kcal/mol
L29K | 1.36 kcal/mol
K28A | 3.04 kcal/mol
T9W | 1.78 kcal/mol
T11G | 2.05 kcal/mol
N14D | 2.79 kcal/mol
N7V | 2.33 kcal/mol
Q39I | 3.09 kcal/mol
H36W | 2.85 kcal/mol
